Results from patent US20180284130A1.

How the values were obtained:
rituximab [1] = assay: flow cytometry; CD19 B cells in PBMC opsonised with 2.5 µg/ml rituximab, dimer 0.2 µg/ml (FIG. 14F)
obinutuzumab (GAZYVA) [2] = assay: ELISA; mAb captured by F(ab')2 anti-human F(ab')2, biotinylated dimer, streptavidin-HRP (FIG. 8C)
obinutuzumab (GAZYVA) [3] = assay: ELISA; mAb at 1000 and 315 ng/ml captured, ratio of A450 obinutuzumab/rituximab (FIG. 8H)
rituximab [4] = assay: flow cytometry; CD19 B cells in PBMC opsonised with 2.5 µg/ml rituximab, dimer 0.2 µg/ml (FIG. 14E)
[5] = target: recombinant human anti-TNP IgG2 (chimeric, TIB142 VH with human IgG2 constant region) (human) [IgG part: P01859]; assay: ELISA; anti-TNP IgG on TNP-BSA, biotinylated dimer; EC50 as IgG concentration (FIG. 3 D, L)

Substance: Human rsFcγRIIIa V158 dimer (receptor)
- median fluorescence intensity (MFI) (rituximab [1]): 11000 MFI

Substance: Human rsFcγRIIIa F158 dimer (receptor)
- binding preference over rituximab (obinutuzumab (GAZYVA) [2]): 20 fold
- binding preference over rituximab (obinutuzumab (GAZYVA) [3]): 10 fold

Substance: Human rsFcγRIIa H131 dimer (from UniProt P12318 34-215) (receptor)
- median fluorescence intensity (MFI) (rituximab [4]): 4000 MFI
- EC50 [5]: 0.3 µg/mL
